± gives the standard error. This sample holds only a part of the variants without activity.
B1: glmS ribozyme (parent)
chain: AUAAAAGCGCCAGAACUACAGAAAUGUAGUUGACGAGGAGGAGGUUUAUCGAAUUUUCGGCGGAUGCCUCCAAA

Experiments:
Conditions in all cases: with glucosamine-6-phosphate
glucosamine-6-phosphate [1] = variants of: B1; assay: self-cleavage kobs at 640 uM GlcN6P; higher = faster cleavage; RNA array
How it was run: (§1)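 Glucosamine-6-phosphate (40 μM to 10 mM) in HEPES/KCl/Mg(OAc)2 buffer was flowed over sequenced MiSeq chips, and tiles were imaged over ~14 h. Barcoded ribozyme variants there had been transcribed in situ by E. coli RNA polymerase and were tracked through a hybridised Cy3 probe at 37 °C. One- or two-exponential decay fits to per-tile medians, normalised to baseline and to non-cleaving reference variants, gave kobs. kcat and KM came from weighted Michaelis–Menten fits across concentrations.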

glucosamine-6-phosphate [2] = variants of: B1; assay: self-cleavage kobs at 2500 uM GlcN6P; higher = faster cleavage; RNA array
How it was run: as §1

glucosamine-6-phosphate [3] = variants of: B1; assay: self-cleavage kobs at 10000 uM GlcN6P; higher = faster cleavage; RNA array
How it was run: as §1

Variant	self-cleavage kobs at 640 uM GlcN6P (glucosamine-6-phosphate [1])	self-cleavage kobs at 2500 uM GlcN6P (glucosamine-6-phosphate [2])	self-cleavage kobs at 10000 uM GlcN6P (glucosamine-6-phosphate [3])
A6G G9U	< 1e-05 s⁻¹	< 1e-05 s⁻¹	< 1e-05 s⁻¹
G32C A42U G60A	< 1e-05 s⁻¹		
A33C C34G A53C U57A G66C	< 1e-05 s⁻¹		
A12G A48C C68G	< 1e-05 s⁻¹	< 1e-05 s⁻¹	
A12U A53G U56C	0.00708 ± 0.0025 s⁻¹	0.0149 ± 0.0066 s⁻¹	
U30G G43A C67A	9.35e-05 ± 3e-05 s⁻¹	0.000157 ± 5.9e-05 s⁻¹	
C10G G40A C70U	< 1e-05 s⁻¹	< 1e-05 s⁻¹	
G32U G41U G60U C68A	< 1e-05 s⁻¹		
G35C A39C A52U G60C G63U	< 1e-05 s⁻¹	< 1e-05 s⁻¹	
C11G A12C C34G A53G U54C	< 1e-05 s⁻¹	< 1e-05 s⁻¹	
C10A A48C G59C	< 1e-05 s⁻¹		
C16U G51U A64G C68A C71A	< 1e-05 s⁻¹	< 1e-05 s⁻¹	
C10G U30C G38U	< 1e-05 s⁻¹		
G13U A14G A42C	< 1e-05 s⁻¹	< 1e-05 s⁻¹	
G9A C61G C68A	< 1e-05 s⁻¹	< 1e-05 s⁻¹	
G9U G13U G29U G37C	< 1e-05 s⁻¹	< 1e-05 s⁻¹	
A6G C10U U54G	< 1e-05 s⁻¹	< 1e-05 s⁻¹	< 1e-05 s⁻¹

Variant	self-cleavage kobs at 640 uM GlcN6P (glucosamine-6-phosphate [1])	self-cleavage kobs at 2500 uM GlcN6P (glucosamine-6-phosphate [2])	self-cleavage kobs at 10000 uM GlcN6P (glucosamine-6-phosphate [3])
A15U G41A G44U C50U	< 1e-05 s⁻¹		
U30A G43A	< 1e-05 s⁻¹		
G13U U45G C67G	< 1e-05 s⁻¹		
G35A G60U C70G	< 1e-05 s⁻¹	< 1e-05 s⁻¹	
G9U U54C C68U	< 1e-05 s⁻¹		
A33U C34U C71G	< 1e-05 s⁻¹		
A6G G32U G35U G51A	< 1e-05 s⁻¹		
G59U G62A U65A	< 1e-05 s⁻¹	< 1e-05 s⁻¹	
A12C C34G G40U	< 1e-05 s⁻¹	< 1e-05 s⁻¹	
C8U A39U G40C U56G U57G	< 1e-05 s⁻¹		
G29A A53G C68G	7.36e-05 ± 2.4e-05 s⁻¹	7.42e-05 ± 2e-05 s⁻¹	
G35U A42G A48U	< 1e-05 s⁻¹		
U31C A42C A64G C67G	< 1e-05 s⁻¹		
C10U U30C G40U U55C G60A C71U	< 1e-05 s⁻¹		
C8A A53U G60U	< 1e-05 s⁻¹	< 1e-05 s⁻¹	
G35A G37A U57A C68A	0.000784 ± 0.00036 s⁻¹		
C10G G38U U49G C58G A64C U65A C67U C68U	0.000308 ± 8.3e-05 s⁻¹		
